Entries after “also recorded” stand apart in the source; their conditions may differ. Values belong to the molecule of their own block, whether it stands above or below them.
Columns and labels:
[1] = biological target: T1, binary FGFR1c-Klotho complex (UniProt O35082+P11362); test: SPR competition: FGFR1c-Klotho binding to immobilized FGF23^28-251; parameters: species or system human FGFR1c, murine Klotho; settings: FGF21^168-209 at molar ratios of 6:1 and 10:1
T1 construct: The ectodomain of murine Klotho (A35 to K982) was purified from culture media; FLAG (C); made in house; host or cells: E. coli (FGFR1c, FGF23); HEK293 (Klotho ectodomain)
T1 sequence (P11362 142-365): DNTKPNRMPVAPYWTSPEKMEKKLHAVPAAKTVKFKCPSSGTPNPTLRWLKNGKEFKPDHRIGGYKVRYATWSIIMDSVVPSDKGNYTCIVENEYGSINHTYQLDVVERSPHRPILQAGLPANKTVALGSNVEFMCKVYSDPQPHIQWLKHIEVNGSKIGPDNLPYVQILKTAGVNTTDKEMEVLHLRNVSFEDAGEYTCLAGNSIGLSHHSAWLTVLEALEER
T1 sequence (O35082 35-982): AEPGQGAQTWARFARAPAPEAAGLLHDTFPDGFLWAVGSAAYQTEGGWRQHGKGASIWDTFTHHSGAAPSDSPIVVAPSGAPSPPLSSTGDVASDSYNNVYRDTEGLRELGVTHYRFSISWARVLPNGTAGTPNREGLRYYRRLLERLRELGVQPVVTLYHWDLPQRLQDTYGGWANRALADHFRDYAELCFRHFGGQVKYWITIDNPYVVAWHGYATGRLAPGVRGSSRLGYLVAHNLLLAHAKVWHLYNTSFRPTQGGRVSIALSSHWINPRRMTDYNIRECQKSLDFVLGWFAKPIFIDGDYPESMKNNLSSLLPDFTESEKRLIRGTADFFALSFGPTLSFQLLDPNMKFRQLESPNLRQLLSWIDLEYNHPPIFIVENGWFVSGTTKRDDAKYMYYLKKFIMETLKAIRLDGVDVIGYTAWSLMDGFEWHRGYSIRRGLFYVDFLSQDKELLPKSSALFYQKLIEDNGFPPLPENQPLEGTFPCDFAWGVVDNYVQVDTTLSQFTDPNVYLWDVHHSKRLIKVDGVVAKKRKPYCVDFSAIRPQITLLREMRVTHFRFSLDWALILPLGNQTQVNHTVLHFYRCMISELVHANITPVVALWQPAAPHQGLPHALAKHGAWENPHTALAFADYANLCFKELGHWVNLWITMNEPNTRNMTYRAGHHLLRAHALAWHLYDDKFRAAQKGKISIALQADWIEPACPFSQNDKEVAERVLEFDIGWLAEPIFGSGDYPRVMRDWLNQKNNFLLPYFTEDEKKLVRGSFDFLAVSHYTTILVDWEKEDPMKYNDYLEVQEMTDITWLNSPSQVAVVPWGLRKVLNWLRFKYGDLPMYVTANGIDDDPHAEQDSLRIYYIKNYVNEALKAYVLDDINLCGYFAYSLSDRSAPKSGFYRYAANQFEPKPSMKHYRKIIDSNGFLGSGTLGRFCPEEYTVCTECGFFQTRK
Procedure: A variety of interaction or binding assays can be used to determine that an agent specifically binds the binary FGFR-Klotho complex, such as the SPR interaction analysis described below. One aspect of the present invention utilizes SPR analysis of FGF23 protein/peptide binding to the binary FGFR-Klotho complex. The SPR analysis involved FGF23 protein/peptide immobilization by amine coupling on flow channels of a chip. Proteins were injected over the chip at a flow rate of 50 μl min^−1, and at the end of each protein injection (180 s), HBS-EP buffer (10 mM HEPES-NaOH, pH 7.4, 150 mM NaCl, 3 mM EDTA, 0.005% (v/v) polysorbate 20; 50 μl min^−1) was flowed over the chip to monitor dissociation for 180 s. The chip surface was then regenerated by injecting 50 μl of 2.0 M NaCl in 10 mM sodium acetate, pH 4.5. […] For each protein injection over a FGF23 protein/peptide chip, the nonspecific responses from the FHF1B control flow channel were subtracted from the responses recorded for the flow channel onto which FGF23 protein/peptide was immobilized. To analyze FGF23 binding to the binary FGFR1c-Klotho complex, FGF23^28-251 was coupled to a chip, and increasing concentrations of 1:1 complex of the ectodomains of FGFR1c and Klotho in HBS-EP buffer were passed over the chip. To measure binding of the C-terminal tail of FGF23 to the binary FGFR1c-Klotho complex, FGF23^180-251 was immobilized on a chip, and increasing concentrations of 1:1 complex of the ectodomains of FGFR1c and Klotho in HBS-EP buffer were passed over the chip. To examine whether the C-terminal tail of FGF23 can compete with full-length FGF23 for binding to the binary FGFR1c-Klotho complex, FGF23^28-251 was immobilized on a chip. Increasing concentrations of FGF23^180-251 were mixed with a fixed concentration of 1:1 complex of the ectodomains of FGFR1c and Klotho in HBS-EP buffer, and the mixtures were passed over the chip. As a control, competition of FGF23 in solution with immobilized FGF23 for binding to the binary FGFR1c-Klotho complex was studied. Increasing concentrations of FGF23^28-251 were mixed with a fixed concentration of 1:1 complex of the ectodomains of FGFR1c and Klotho in HBS-EP buffer, and the mixtures were passed over the FGF23 chip. Competition of the FGF23 C-terminal tail peptide with full-length FGF23 for binding to the binary FGFR1c-Klotho complex was also studied using the “reverse” SPR assay format, where FGF23^180-251 was immobilized on a chip and mixtures of a fixed concentration of 1:1 complex of the ectodomains of FGFR1c and Klotho with increasing concentrations of FGF23^28-251 were passed over the chip. As a control, competition of FGF23 C-terminal tail peptide in solution with immobilized FGF23 C-terminal tail peptide for binding to the binary FGFR1c-Klotho complex was analyzed. Increasing concentrations of FGF23^180-251 were mixed with a fixed concentration of 1:1 complex of the ectodomains of FGFR1c and Klotho in HBS-EP buffer, and the mixtures were passed over the FGF23^180-251 chip. To verify the specificity of the interaction between the FGF23 C-terminal tail and the FGFR1c-Klotho complex, FGF23^28-251 was immobilized on a chip. Increasing concentrations of FGF21^168-209 were mixed with a fixed concentration of 1:1 complex of the ectodomains of FGFR1c and Klotho in HBS-EP buffer, and the mixtures were passed over the chip. In addition, the ability of the FGF23 C-terminal tail peptide to interfere with binary complex formation between βKlotho and either FGF19 or FGF21 was tested, as was its ability to interfere with ternary complex formation between βKlotho, FGFR, and either FGF19 or FGF21. FGF19^23-216 and FGF21^29-209 were immobilized on two flow channels of a chip. FGF23^180-251 and the ectodomain of βKlotho were mixed at a molar ratio of 2:1, and the mixture was injected over the chip. Next, FGF23^180-251 and the 1:1 complex of the ectodomains of FGFR1c and βKlotho were mixed at a molar ratio of 10:1, and the mixture was passed over the FGF19/FGF21 chip. […]

[2] = biological target: T2, FGFR1c (Homo sapiens, UniProt P11362); test: SPR: FGFR1c ectodomain passed over immobilized Klotho ectodomain; type: binding; settings: 25° C., HBS-EP buffer, read-out: dissociation constant (KD) of the FGFR1c-Klotho interaction
T2 construct: made in house; host or cells: E. coli
T2 sequence (P11362 142-365): T1 sequence (P11362 142-365)
Procedure: Surface plasmon resonance (SPR) spectroscopy experiments were performed on a Biacore 2000 instrument (Biacore AB), and FGF23-FGFR1c-Klotho interactions were studied at 25° C. in HBS-EP buffer (10 mM HEPES-NaOH, pH 7.4, 150 mM NaCl, 3 mM EDTA, 0.005% (v/v) polysorbate 20). Proteins were immobilized by amine coupling on flow channels of research grade CM5 chips (Biacore AB). Proteins were injected over a CM5 chip at a flow rate of 50 μl min^−1, and at the end of each protein injection (180 s), HBS-EP buffer (50 μl min^−1) was flowed over the chip to monitor dissociation for 180 s. The chip surface was then regenerated by injecting 50 μl of 2.0 M NaCl in 10 mM sodium acetate, pH 4.5. […] For each protein injection over a Klotho chip, the nonspecific responses from the β-glucuronidase control flow channel were subtracted from the responses recorded for the Klotho flow channel. Similarly, for each protein injection over a FGF chip, the nonspecific responses from the FHF1B control flow channel were subtracted from the responses recorded for the FGF flow channel. […]
To analyze Klotho binding to FGFR1c, Klotho ectodomain was immobilized on a chip (˜29-35 fmole/mm^2 of flow channel). […] Maximal equilibrium responses were plotted against the concentrations of FGFR1c ectodomain (FIG. 1B), and from the fitted saturation binding curve the equilibrium dissociation constant (KD) was calculated. […]

Molecule: FGF21^168-209: 42-amino acid long C-terminal tail of FGF21 (P168 to S209), expressed in E. coli (PGLPPALPEPPGILAPQPPDVGSSDPLSMVGPSQGRSPSYAS; left off: small tags and cut ends) [reference compound]
inhibition of FGFR1c-Klotho binding to immobilized FGF23^28-251 [1]: failed to inhibit; also recorded: no inhibition

Kd [2]: 0.072 µM
B1: Klotho: ectodomain of murine Klotho (A35 to K982) purified from HEK293 culture media (protein)
chain: T1 sequence (O35082 35-982)
modifications: left off: small tags and cut ends
notes: ectodomain of murine Klotho (A35 to K982) purified from HEK293 culture media
